Assay results reported in PMC2650276 (Neuron, 2009).
Where two headings read alike, the source gives them in different places. Where no end group is shown, it is not given here.

How the values were obtained:
Assay in all cases: pull-down
[1] = target: T1, His-tagged full-length CaMKIIα (M1-H478), wild type (rat, UniProt P11275 1-478)
[2] = target: His-tagged WT pCaMKIIα (autophosphorylated at T286) (rat, UniProt P11275 1-478, phosphothreonine at T286 (autophosphorylation))
[3] = target: GST-tagged full-length CaMKIIα (M1-H478) (rat, UniProt P11275 1-478)
GST-tagged full-length CaMKIIα (M1-H478), sequence (P11275 whole entry): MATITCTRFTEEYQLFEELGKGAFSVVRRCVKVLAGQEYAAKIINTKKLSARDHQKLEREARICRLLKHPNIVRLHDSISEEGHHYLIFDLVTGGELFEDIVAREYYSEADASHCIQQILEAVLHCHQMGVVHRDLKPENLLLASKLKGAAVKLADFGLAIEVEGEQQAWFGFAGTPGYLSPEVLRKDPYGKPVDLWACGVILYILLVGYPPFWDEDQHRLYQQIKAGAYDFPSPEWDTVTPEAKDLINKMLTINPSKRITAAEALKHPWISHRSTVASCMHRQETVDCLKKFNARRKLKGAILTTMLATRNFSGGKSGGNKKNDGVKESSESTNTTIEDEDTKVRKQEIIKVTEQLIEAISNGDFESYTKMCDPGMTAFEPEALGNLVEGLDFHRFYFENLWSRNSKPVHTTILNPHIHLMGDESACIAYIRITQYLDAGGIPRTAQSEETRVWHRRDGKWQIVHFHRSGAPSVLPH

[4] = target: T1, His-tagged full-length CaMKIIα …; remark: listed apart in the source
[5] = target: T1, His-tagged full-length CaMKIIα …; remark: listed apart in the source

T1 sequence (P11275 whole entry): as above
His-tagged WT pCaMKIIα (autophosphorylated at T286), sequence (P11275 whole entry): as above

B1: GST-D3RIL3 (R210-Q375) (domain or fragment, rat, UniProt P19020 210-375, looked up)
chain: RIYIVLRQRQRKRILTRQNSQCISIRPGFPQQSSCLRLHPIRQFSIRARFLSDATGQMEHIEDKQYPQKCQDPLLSHLQPPSPGQTHGGLKRYYSICQDTALRHPSLEGGAGMSPVERTRNSLSPTMAPKLSLEVRKLSNGRLSTSLRLGPLQPRGVPLREKKATQ
[1]
  binding result: binds
[2]
  binding result: binds

B2: D3RIL3 (R210-Q375), released from GST by thrombin (domain or fragment, rat, UniProt P19020 210-375, looked up)
chain: RIYIVLRQRQRKRILTRQNSQCISIRPGFPQQSSCLRLHPIRQFSIRARFLSDATGQMEHIEDKQYPQKCQDPLLSHLQPPSPGQTHGGLKRYYSICQDTALRHPSLEGGAGMSPVERTRNSLSPTMAPKLSLEVRKLSNGRLSTSLRLGPLQPRGVPLREKKATQ
[3]
  binding result: binds

B3: biotinylated Tat-D3Rr (peptide)
peptide: YGRKKRRQRRRRILTRQNSQCISIRP
modifications: also: biotin, position not given here
[4]
  binding result: binds

B4: GST-D3RIL3(R210-P239) (domain or fragment, rat, UniProt P19020 210-239, looked up)
chain: RIYIVLRQRQRKRILTRQNSQCISIRPGFP
[5]
  binding result: binds
[2]
  binding result: binds
